In US7314726B2, “Beta secretase exosite binding peptides and methods for identifying beta secretase modulators” (Bristol-Myers Squibb Company, priority 2002, dated 2008):
“And” between values parts separate entries of the source, which are not always exact repeats. Equal entries are not always repeated. Where two headings read alike, the source gives them in different places. One block for each compound: values may come before it. Square brackets hold non-standard residues; d marks the D form. Peptide text beside a SMILES is read from it. Bpa = N[C@@H](Cc1ccc(C(=O)c2ccccc2)cc1)C(=O)O; Alexa488 = Alexa Fluor 488 fluorescent label

What was measured:
[1] = Solubility of Bpa-mutated peptides in the competition assay; assay type: physicochemical; details: FIG. 11, Bpa scan; inhibition under determined
BACE [2] = target: T1, BACE (Homo sapiens, UniProt P56817); experiment: Phage ELISA of phage-displayed peptides on immobilised BACE; assay type: binding; parameters: The cDNA for the catalytic domain of human BACE (residues 1-460) was PCR-amplified; human IgG1 heavy chain (C, cleaved yes); thrombin cleavage site (C); made in house; host or cells: CHO DG44 cells (stably transfected, secreted); details: peptides from solution phase panning; tested at pH 5.0
Target sequence in this assay (P56817 46-460 limits assumed): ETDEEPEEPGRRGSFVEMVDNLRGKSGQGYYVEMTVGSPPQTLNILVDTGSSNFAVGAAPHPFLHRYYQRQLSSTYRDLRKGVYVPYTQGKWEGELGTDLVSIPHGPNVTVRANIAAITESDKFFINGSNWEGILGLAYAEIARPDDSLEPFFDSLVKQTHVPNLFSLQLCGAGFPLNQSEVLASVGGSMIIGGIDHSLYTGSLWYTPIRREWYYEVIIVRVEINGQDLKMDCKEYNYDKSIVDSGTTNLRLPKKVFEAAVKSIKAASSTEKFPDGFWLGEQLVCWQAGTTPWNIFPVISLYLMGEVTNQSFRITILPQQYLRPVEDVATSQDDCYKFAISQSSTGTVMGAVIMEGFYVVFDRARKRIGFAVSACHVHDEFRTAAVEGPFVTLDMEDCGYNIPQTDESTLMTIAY

[3] = target: T2, catalytic domain of human BACE expressed in a CHO cell line (Homo sapiens, UniProt P56817); experiment: Fluorescently labeled EBP binding to BACE, fluorescence anisotropy; details: for Kd: pH 4.5 (50 mM acetate), 25° C., 1:1 binding model, read-out: binding constant (Kd) of labeled EBP
T2 construct: The cDNA for the catalytic domain of human BACE (residues 1-460) was PCR-amplified; human IgG1 heavy chain (C, cleaved yes); thrombin cleavage site (C); made in house; host or cells: CHO DG44 cells (stably transfected, secreted)
Method: An assay to evaluate the binding of BACE to EBPs labeled with a fluorescent molecule (for example, but not limited to Alexa488) was developed. This assay uses the catalytic domain of human BACE expressed in a CHO cell line (according to Example 3) and labeled EBPs such as Molecule X shown in FIG. 4. The change in fluorescent anisotropy of the EBP peptide upon binding to BACE is monitored.
Peptides were dissolved in 100% DMSO (dimethyl sulfoxide) at 10 mM concentration, and then diluted 10-fold into deionized water. The concentration of the labeled peptides was determined by their absorbance at 495 nm (ε=71000 cm^−1M^−1). The concentration of selected unlabeled peptides was determined by their Tyr absorbance at 276 nm (ε=1390 cm^−1M^−1 per Tyr residue).
The binding was carried out at pH 7.1 (PBS buffer) and pH 4.5 (50 mM acetate buffer) in the presence of 1% DMSO. Fluorescence anisotropy was measured at 25° C. in an AVIV fluorometer. The excitation and emission wavelengths were set to 495 and 519 nm, respectively. The excitation and emission slit width were 4 and 10 nm, respectively. A concentrated BACE stock was used to titrate a 300 μl solution of 10 nM labeled EBP. The final BACE concentration ranges from 10 to 5000 nM. After the addition of BACE, the solution was mixed for 10 times with a pipettor. The fluorescence anisotropy was averaged over a 5 minute period.
The change in anisotropy was plotted against the BACE concentration (see, for example, FIG. 5). The Kd of the labeled EBP as well as the initial (r0) and final anisotropy (rb) of the labeled EBP were calculated from curve fitting using the program Kaleidagraph. The equation used to fit the binding data is identical to equation 1 in Lai et al., (2000) Arch. Biochem. Biophys. 381:278-284.

[4] = target: T3, catalytic domain of BACE purified from E. coli cells (Homo sapiens, UniProt P56817); experiment: Binding of labeled EBP to BACE purified from E. coli cells; details: compared with BACE purified from CHO cells
T3 construct: the catalytic domain of BACE purified from E. coli cells; made in house; host or cells: E. coli
Method: Binding of Molecule Y1 to the catalytic domain of BACE purified from E. coli cells was carried out to determine the effect of glycosylation on the EBP binding.

BACE [5] = target: T1, BACE; experiment: BACE cleavage assay with MCA-[…](-dnp)-COOH substrate, HPLC analysis; assay type: biochemical; details: 0.1 nM BACE, 25 μM substrate peptide, 60 minutes at 25° C.; read-out: IC50, inhibition of proteolytic activity of BACE
Method: Molecule Y3 was tested in a BACE cleavage assay using the peptide MCA-[…](-dnp)-COOH (SEQ ID NO:107) as a substrate. The assay was carried out essentially as described in Mallender et al., (2001) Mol. Pharmacol. 59:619-626 and in Marcinkeviciene et al., (2001) J. Biol. Chem. 276: 23790-23794. A concentration of 0.1 nM BACE was incubated with Molecule Y3 at various concentrations for 15 minutes before substrate peptide was added to a final concentration of 25 μM. The reaction was allowed to proceed for 60 minutes at 25° C. before it was stopped by boiling. The reaction mixture was separated on a C18 column using reverse phase HPLC (Waters, Milford, Mass.). The IC50 value was calculated using the Langmuir isotherm equation (Copeland, R. A., Enzymes: A Practical Introduction to Structure, Mechanism, and Data Analysis, (2nd ed), Wiley-VCH, New York, N.Y. (2000)).
Target sequence in this assay (P56817 46-457 limits assumed): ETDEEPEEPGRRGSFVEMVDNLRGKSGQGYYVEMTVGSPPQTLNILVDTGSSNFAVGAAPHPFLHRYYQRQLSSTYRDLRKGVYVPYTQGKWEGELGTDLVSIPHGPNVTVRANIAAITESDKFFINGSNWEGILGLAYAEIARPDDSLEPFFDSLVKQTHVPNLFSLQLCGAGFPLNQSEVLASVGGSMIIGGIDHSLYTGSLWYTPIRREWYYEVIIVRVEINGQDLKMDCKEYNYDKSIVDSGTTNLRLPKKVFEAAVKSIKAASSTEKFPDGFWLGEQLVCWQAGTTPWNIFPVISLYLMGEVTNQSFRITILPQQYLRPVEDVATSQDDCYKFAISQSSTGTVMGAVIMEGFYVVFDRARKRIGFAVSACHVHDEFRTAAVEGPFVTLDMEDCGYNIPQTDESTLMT

T2 sequence (P56817 46-460 limits assumed): as the sequence (P56817 46-460 limits assumed) above
T3 sequence (P56817 46-457 limits assumed): as the sequence (P56817 46-457 limits assumed) above

Compound: CC[C@H](C)[C@H](NC(=O)[C@H](Cc1ccccc1)NC(=O)[C@H](Cc1ccc(O)cc1)NC(=O)[C@H](Cc1ccc(C(=O)c2ccccc2)cc1)NC(=O)[C@H](Cc1ccc(O)cc1)NC(C)=O)C(=O)N1CCC[C@H]1C(=O)N[C@@H](CC(C)C)C(N)=O [P6B] (Ac-Y[Bpa]YFIPL-NH2)
solubility [1]: limited solubility

Compound: Molecule Y3: analog of Molecule Y1 with different length of linker between Alexa488 and the peptide (Ac-YPYFIPL-Alexa488; also: linker between peptide and Alexa488 not given here)
Kd [3]: 0.048 µM | IC50 (BACE [5]): 0.731 µM

Compound: TAEYESRTARTAPPAPTQHWPFFIRST
phage ELISA binding to BACE (BACE [2]): strong and specific binding

Continued, in another order:

solubility [1]: limited solubility
Compound: CC(=O)N[C@@H](Cc1ccc(O)cc1)C(=O)N1CCC[C@H]1C(=O)N[C@@H](Cc1ccc(O)cc1)C(=O)N[C@@H](Cc1ccccc1)C(=O)N[C@@H](Cc1ccc(C(=O)c2ccccc2)cc1)C(=O)N1CCC[C@H]1C(=O)N[C@@H](CC(C)C)C(N)=O [I9B] (Ac-YPYF[Bpa]PL-NH2)

phage ELISA binding to BACE (BACE [2]): strong and specific binding
Compound: ETWPRFIPYHALTQQTLKHQQHT

enhancement of affinity in the presence of OM99-2 ([3]; in the presence of 10 μM OM99-2): 5 fold | Kd ([3]; listed as Y1): 0.058 µM and 0.057 µM
Compound: Molecule Y1: peptide YPYFIPL (BMS-593925) with C-terminal Alexa488 label, FIG. 4 (Ac-YPYFIPL-Alexa488; also: linker between peptide and Alexa488 not given here)
binding affinity for E. coli expressed (non-glycosylated) human BACE [4]: the same as that of human BACE purified from CHO cells
